Target: tRip1-402 (Plasmodium falciparum) (UniProt Q8IL48)
Assay: competition EMSA
Conditions: unmodified transcript; scale: fold difference from Sc tRNAPheGAA

Work on minihelixPhe yielded a binding signal of less than 2.
